Test results reported in patent US20140087995A1 (published 2014).
Numbered stars: 1 amine (or outer) side, 2 acyl side, 3 side chain; on linkers, the order of the positions; unused ones are H or OH. Bridge positions count the residues as written; N and C are the ends. Side chains are listed from the residue outwards. Ends that are not written are not given here. * marks the point of attachment. C20 diacid = O=C(O)CCCCCCCCCCCCCCCCCCC(=O)*; γGlu = O=C(O)[C@H](CCC(=O)[*:2])N[*:1]; AEEA = NCCOCCOCC(=O)O

T1: human calcitonin receptor (human, UniProt P30988 25-474)
T1 construct: whole, on cells; membranes of stably transfected BHK cells (Assay VII); also called hCTR; hCT
T1 sequence (looked up): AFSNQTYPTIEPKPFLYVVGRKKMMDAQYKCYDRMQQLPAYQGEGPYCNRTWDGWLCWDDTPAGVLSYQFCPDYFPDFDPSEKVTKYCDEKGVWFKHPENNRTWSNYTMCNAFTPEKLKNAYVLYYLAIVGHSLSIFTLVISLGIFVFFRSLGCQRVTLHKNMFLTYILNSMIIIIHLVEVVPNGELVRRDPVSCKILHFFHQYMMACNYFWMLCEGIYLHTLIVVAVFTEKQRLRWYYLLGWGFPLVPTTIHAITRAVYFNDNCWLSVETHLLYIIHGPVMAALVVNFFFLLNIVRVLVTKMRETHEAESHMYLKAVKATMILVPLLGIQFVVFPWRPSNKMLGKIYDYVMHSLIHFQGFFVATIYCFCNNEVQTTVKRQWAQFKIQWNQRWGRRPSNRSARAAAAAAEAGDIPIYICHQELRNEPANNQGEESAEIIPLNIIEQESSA

T2: rat amylin receptor (rat calcitonin receptor + rat RAMP 3) (rat, UniProt P32214 25-516; Q9JJ73 23-147)
T2 construct: whole, on cells; membranes of transiently transfected BHK tk'ts 13 cells (Assay VI); also called rAmylin-R; rat amylin 3(a) receptor
T2 sequence (looked up) 1: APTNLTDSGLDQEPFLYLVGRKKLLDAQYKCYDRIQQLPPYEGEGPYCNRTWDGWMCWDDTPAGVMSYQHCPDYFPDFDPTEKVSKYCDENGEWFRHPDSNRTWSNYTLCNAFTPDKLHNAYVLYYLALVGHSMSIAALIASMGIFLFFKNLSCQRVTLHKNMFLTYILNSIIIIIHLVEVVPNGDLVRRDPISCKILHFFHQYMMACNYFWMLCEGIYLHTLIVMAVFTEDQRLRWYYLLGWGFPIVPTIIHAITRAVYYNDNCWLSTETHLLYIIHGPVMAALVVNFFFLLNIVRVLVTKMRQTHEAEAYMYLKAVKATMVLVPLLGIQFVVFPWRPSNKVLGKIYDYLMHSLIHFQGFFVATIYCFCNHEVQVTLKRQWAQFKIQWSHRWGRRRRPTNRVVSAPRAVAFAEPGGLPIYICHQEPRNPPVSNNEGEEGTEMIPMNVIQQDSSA
T2 sequence (looked up) 2: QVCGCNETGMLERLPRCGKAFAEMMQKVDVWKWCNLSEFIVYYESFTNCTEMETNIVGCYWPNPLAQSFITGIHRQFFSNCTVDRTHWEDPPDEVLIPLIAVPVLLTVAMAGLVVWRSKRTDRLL

T3: rat calcitonin receptor (rat, UniProt P32214 25-516)
T3 construct: whole, on cells; membranes of transiently transfected BHK tk'ts 13 cells (Assay VIII); also called rCTR; rat calcitonin (a) receptor
T3 sequence (looked up): T2 sequence (looked up) 1

B1: N^ε1-[2-[2-[2-[[(4S)-4-carboxy-4-(19-carboxynonadecanoylamino)butanoyl]amino]ethoxy]ethoxy]acetyl]-[Arg17,Pro21,Pro27]-h-amylin (peptide)
peptide: K([AEEA-γGlu-C20 diacid])CNTATCATQRLANFLRHSSPNFGAIPSSTNVGSNTY-NH2
modifications: disulfide 2-7 (inferred)
notes: analogue of human amylin; also called compound 41
B2: N^ε-[(4S)-4-carboxy-4-(19-carboxynonadecanoylamino)butanoyl]Lys[Arg1,Arg17,Pro21,Pro27,His35]-h-amylin (peptide)
peptide: K([γGlu-C20 diacid])RCNTATCATQRLANFLRHSSPNFGAIPSSTNVGSHTY-NH2
modifications: disulfide 3-8 (inferred)
notes: analogue of human amylin extended by Lys at the N-terminus; also called compound 44
B3: N^-1-[(4S)-4-carboxy-4-(19-carboxynonadecanoylamino)butanoyl]-Gly[Arg1,Arg17,Pro21,Pro27]-h-amylin (peptide)
peptide: {C20 diacid-γGlu}-GRCNTATCATQRLANFLRHSSPNFGAIPSSTNVGSNTY-NH2
modifications: disulfide 3-8 (inferred)
notes: analogue of human amylin extended by Gly at the N-terminus; also called compound 46
B4: N^-1-[(4S)-4-carboxy-4-(19-carboxynonadecanoylamino)butanoyl]-Gly[Arg1,Arg17,Pro21,Pro27,His35]-h-amylin (peptide)
peptide: {C20 diacid-γGlu}-GRCNTATCATQRLANFLRHSSPNFGAIPSSTNVGSHTY-NH2
modifications: disulfide 3-8 (inferred)
notes: analogue of human amylin extended by Gly at the N-terminus; also called compound 47
B5: N^ε1-[(4S)-4-carboxy-4-(19-carboxynonadecanoylamino)butanoyl]-[Arg17,Pro21,Pro27,Glu35]-h-amylin (peptide)
peptide: K([γGlu-C20 diacid])CNTATCATQRLANFLRHSSPNFGAIPSSTNVGSETY-NH2
modifications: disulfide 2-7; N-terminus assumed
SMILES: CC[C@H](C)[C@H](NC(=O)[C@H](C)NC(=O)CNC(=O)[C@H](Cc1ccccc1)NC(=O)[C@H](CC(N)=O)NC(=O)[C@@H]1CCCN1C(=O)[C@H](CO)NC(=O)[C@H](CO)NC(=O)[C@H](Cc1c[nH]cn1)NC(=O)[C@H](CCCNC(=N)N)NC(=O)[C@H](CC(C)C)NC(=O)[C@H](Cc1ccccc1)NC(=O)[C@H](CC(N)=O)NC(=O)[C@H](C)NC(=O)[C@H](CC(C)C)NC(=O)[C@H](CCCNC(=N)N)NC(=O)[C@H](CCC(N)=O)NC(=O)[C@@H](NC(=O)[C@H](C)NC(=O)[C@@H]1CSSC[C@H](NC(=O)[C@@H](N)CCCCNC(=O)CC[C@H](NC(=O)CCCCCCCCCCCCCCCCCCC(=O)O)C(=O)O)C(=O)N[C@@H](CC(N)=O)C(=O)N[C@@H]([C@@H](C)O)C(=O)N[C@@H](C)C(=O)N[C@@H]([C@@H](C)O)C(=O)N1)[C@@H](C)O)C(=O)N1CCC[C@H]1C(=O)N[C@@H](CO)C(=O)N[C@@H](CO)C(=O)N[C@H](C(=O)N[C@@H](CC(N)=O)C(=O)N[C@H](C(=O)NCC(=O)N[C@@H](CO)C(=O)N[C@@H](CCC(=O)O)C(=O)N[C@H](C(=O)N[C@@H](Cc1ccc(O)cc1)C(N)=O)[C@@H](C)O)C(C)C)[C@@H](C)O
notes: analogue of human amylin; also called compound 27
B6: N^ε1-[(4S)-4-carboxy-4-(19-carboxynonadecanoylamino)butanoyl]-[Glu14,Arg17,Pro21,Pro27,Arg35]-h-amylin (peptide)
peptide: K([γGlu-C20 diacid])CNTATCATQRLAEFLRHSSPNFGAIPSSTNVGSRTY-NH2
modifications: disulfide 2-7 (inferred)
notes: analogue of human amylin; also called compound 51
B7: N^ε1-[(4S)-4-carboxy-4-[[(4S)-4-carboxy-4-(19-carboxynonadecanoylamino)butanoyl]amino]butanoyl]-[Asp14,Arg17,Pro22,Pro26,Asp35]-h-amylin (peptide)
peptide: K([γGlu-γGlu-C20 diacid])CNTATCATQRLADFLRHSSNPFGAPLSSTNVGSDTY-NH2
modifications: disulfide 2-7 (inferred)
notes: analogue of human amylin; also called compound 3
B8: N^ε1-[(4S)-4-carboxy-4-(19-carboxynonadecanoylamino)butanoyl]-[Arg17,Pro21,Pro27,Lys35]-h-amylin (peptide)
peptide: K([γGlu-C20 diacid])CNTATCATQRLANFLRHSSPNFGAIPSSTNVGSKTY-NH2
modifications: disulfide 2-7 (inferred)
notes: analogue of human amylin; also called compound 35
B9: N{Alpha-1}-[(4S)-4-carboxy-4-(19-carboxynonadecanoylamino)butanoyl]-[Glu14,Arg17,Pro21,Pro27,Lys34]-h-amylin (peptide)
peptide: {C20 diacid-γGlu}-KCNTATCATQRLAEFLRHSSPNFGAIPSSTNVGKNTY-NH2
modifications: disulfide 2-7 (inferred)
notes: analogue of human amylin; also called compound 36
B10: N^ε1-[(4S)-4-carboxy-4-[[(4S)-4-carboxy-4-(19-carboxynonadecanoylamino)butanoyl]amino]butanoyl]-[Asp14,Arg17,Pro21,Pro26,Asp35]-h-amylin (peptide)
peptide: K([γGlu-γGlu-C20 diacid])CNTATCATQRLADFLRHSSPNFGAPLSSTNVGSDTY-NH2
modifications: disulfide 2-7 (inferred)
notes: analogue of human amylin; also called compound 1
B11: N^ε1-[(4S)-4-carboxy-4-[[(4S)-4-carboxy-4-(19-carboxynonadecanoylamino)butanoyl]amino]butanoyl]-[Asp14,Arg17,Pro21,Pro27,Asp35]-h-amylin (peptide)
peptide: K([γGlu-γGlu-C20 diacid])CNTATCATQRLADFLRHSSPNFGAIPSSTNVGSDTY-NH2
modifications: disulfide 2-7 (inferred)
notes: analogue of human amylin; also called compound 2
B12: N^ε1-[2-[2-[2-(19-carboxynonadecanoylamino)ethoxy]ethoxy]acetyl]-[Arg17,Pro21,Pro27]-h-amylin (peptide)
peptide: K([AEEA-C20 diacid])CNTATCATQRLANFLRHSSPNFGAIPSSTNVGSNTY-NH2
modifications: disulfide 2-7 (inferred)
notes: analogue of human amylin; also called compound 43
B13: N^α1-[2-[2-[2-[[2-[2-[2-[[(4S)-4-carboxy-4-(19-carboxynonadecanoylamino)butanoyl]amino]ethoxy]ethoxy]acetyl]amino]ethoxy]ethoxy]acetyl]-[Arg17,Pro21,Pro27]-h-am … (peptide)
peptide: KCNTATCATQRLANFLRHSSPNFGAIPSSTNVGSNTY
modifications: C20 diacid-gGlu-2xOEG on the alpha amino group of the N-terminal residue (Lys 1); disulfide bridge between the two Cys residues; C-terminal amide
notes: analogue of human amylin; also called compound 24
B14: N^ε1-19-carboxynonadecanoyl-[Arg17,Pro21,Pro27]-h-amylin (peptide)
peptide: K(C20 diacid)CNTATCATQRLANFLRHSSPNFGAIPSSTNVGSNTY-NH2
modifications: disulfide 2-7 (inferred)
notes: analogue of human amylin; also called compound 42
B15: N^α1-[(4S)-4-carboxy-4-(19-carboxynonadecanoylamino)butanoyl]-[Glu14,Arg17,Pro21,Pro25,Pro28,Pro29]-h-amylin (peptide)
peptide: {C20 diacid-γGlu}-KCNTATCATQRLAEFLRHSSPNFGPILPPTNVGSNTY-NH2
modifications: disulfide 2-7 (inferred)
notes: analogue of human amylin; also called compound 6
B16: N^ε-[2-[2-[2-[[(4S)-4-carboxy-4-(19-carboxynonadecanoylamino)butanoyl]amino]ethoxy]ethoxy]acetyl]Lys[Arg1,Arg17,Pro21,Pro27,His35]-h-amylin (peptide)
peptide: K([AEEA-γGlu-C20 diacid])RCNTATCATQRLANFLRHSSPNFGAIPSSTNVGSHTY-NH2
modifications: disulfide 3-8 (inferred)
notes: analogue of human amylin extended by Lys at the N-terminus; also called compound 45

Target: T1, human calcitonin receptor
Test: IC50 on human calcitonin receptor divided by IC50 on human amylin receptor (SPA competition)
Protocol: The resulting pellet was resuspended, homogenized and centrifuged (20.000 rpm, 15 min) in a buffer containing 20 mM Na-HEPES and 0.1 mM EDTA (pH 7.4, buffer 2). The resulting pellet was resuspended in buffer 2 and protein concentration was measured (BCA protein Assay, Pierce). The homogenate was kept cold during the whole procedure. The membranes were kept at −80° C. until use. The assay was performed in a 384 well Optiplate (PerkinElmer) in a total volume of 40 ul. Membranes were mixed with SPA beads. Final concentration of membranes 35 ng/μL final and SPA beads was 0.05 mg/well. Test-compounds were dissolved in DMSO and further diluted in assay buffer (50 mM Hepes, pH 7.4, 1 mM CaCl2, 5 mM MgCl₂, 0.1% OA and 0.02% Tween20). […] The final mixture was incubated with shaking at 400 rpm for 120 min at 25° C. prior to centrifugation (1500 rpm, 10 min). Samples were analyzed on TopCounter™ (Packard). The IC₅₀ was calculated using (one site binding competition analysis) GraphPad Prism5 as a measure of receptor affinity.
Membranes were prepared in the following way; the cells were rinsed with PBS and incubated with Versene for approximately 5 min before harvesting. The cells were flushed with PBS and the cell-suspension was centrifuged for 5 min at 1000 rpm. Cells were homogenized (Ultrathurrax) in a buffer containing 20 mM Na-HEPES and 10 mM EDTA (pH 7.4) and centrifuged at 20.000 rpm for 15 min. The resulting pellet was resuspended, homogenized and centrifuged (20.000 rpm, 15 min) in a buffer containing 20 mM Na-HEPES and 0.1 mM EDTA (pH 7.4, buffer 2). The resulting pellet was resuspended in buffer 2 and protein concentration was measured (BCA protein Assay, Pierce). The homogenate was kept cold during the whole procedure. The membranes were kept at −80° C. until use. Assay was performed in a 384 well Optiplate (PerkinElmer) in a total volume of 40 ul. Membranes were mixed with SPA beads.

Ratio hCT/hAmylin binding | Binder
49.9 | B1
17.7 | B2
48.9 | B3
44.9 | B4
41.3 | B5
37.5 | B6
17.3 | B7
50.3 | B8
15.7 | B9
27.6 | B10
47.5 | B11
34.7 | B12
90 | B13
30.7 | B14
20 | B15
26.8 | B16

Target: T2, rat amylin receptor (rat calcitonin …)
Test: SPA competition with 125I-rat amylin, membranes of BHK cells with rat calcitonin receptor + rat RAMP3 (Assay VI)

IC50 [nM] | Binder
1.37 | B1
0.369 | B2
0.33 | B3
0.203 | B4
0.614 | B5
0.523 | B6
1 | B7
0.948 | B8
1.86 | B9
1.3 | B10
0.295 | B11
0.11 | B12
3.01 | B13
0.603 | B14
2.37 | B15
0.623 | B16

Target: T3, rat calcitonin receptor
Test: SPA competition with 125I-calcitonin, membranes of BHK cells with rat calcitonin receptor (Assay VIII)

IC50 [nM] | Binder
74.1 | B1
19.6 | B2
46.8 | B3
17.1 | B4
90.2 | B5
62 | B6
16.7 | B7
61.7 | B8
60.1 | B9
135 | B10
108 | B11
7.6 | B12
350 | B13
15.3 | B14
51.5 | B15
41.8 | B16

Target: T3, rat calcitonin receptor
Test: IC50 on rat calcitonin receptor divided by IC50 on rat amylin receptor (SPA competition)

Ratio rCT/rAmylin binding | Binder
54 | B1
53.3 | B2
142 | B3
84.3 | B4
147 | B5
119 | B6
16.7 | B7
65.1 | B8
32.4 | B9
104 | B10
366 | B11
69.1 | B12
116 | B13
25.4 | B14
21.7 | B15
67.1 | B16
